These results are taken from US20220406376A1 (MacroGenics, published 2022).

Assay [1] addresses T1, 5T4 on the surface of target cells (JIMT-1, SKOV-3) (UniProt Q13641 32-420, limits assumed).
T1 construct: whole, on cells
T1 sequence (looked up): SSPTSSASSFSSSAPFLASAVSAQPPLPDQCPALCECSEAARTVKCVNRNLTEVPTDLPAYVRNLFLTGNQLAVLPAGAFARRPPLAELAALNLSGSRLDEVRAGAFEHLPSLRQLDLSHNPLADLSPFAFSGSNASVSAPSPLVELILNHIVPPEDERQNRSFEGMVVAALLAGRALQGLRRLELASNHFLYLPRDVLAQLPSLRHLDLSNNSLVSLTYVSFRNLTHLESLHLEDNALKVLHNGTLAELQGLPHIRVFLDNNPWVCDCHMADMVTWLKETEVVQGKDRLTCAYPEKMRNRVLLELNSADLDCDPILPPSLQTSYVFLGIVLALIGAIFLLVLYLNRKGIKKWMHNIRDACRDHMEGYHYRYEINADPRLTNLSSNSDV
Briefly: flow cytometry on SKOV-3 (5T4 lo) cells, anti-hFc APC MFI.

The target in assay [2] is T1, 5T4 on the surface of target cells …. As to the kind of experiment: flow cytometry on JIMT-1 (5T4 hi) cells, anti-hFc APC MFI.
Assay [3] has as its target T2, CD137 on the surface of cells (activated human T cells; engineered CHO cells) (human, UniProt Q07011 24-255).
T2 construct: whole, on cells; also called human CD137; cell surface expressed CD137
Briefly: flow cytometry on activated pan T cells gated CD8+ (donor D43867), anti-hFc APC MFI. The method, then:
Three antibodies were selected for further study. For such evaluations, purified pan T-cells (see above) were stimulated with anti-CD3/CD28 beads (cells:beads=1:1) for 72 hours in the presence of IL-2 (100 U/mL). 100 μL of activated T cells (1.0×10⁶ cells/mL) and 100 μL of serially diluted (5- or 10-fold dilutions) test article (antibody or bispecific diabody) was added to each well of microtiter assay plate(s), mixed and incubated at RT for 45 min. The cells were washed with FACS Buffer and secondary antibody (anti-human-Fc region-APC) was then added to each well; mixed and incubated at RT for 30 min. Cells were then washed FACS Buffer and T cell surface marker antibodies (anti-CD4 labeled with V510, and anti-CD8 labeled with FITC) were then added to each well; mixed and incubated at RT for 30 min. Cells were washed and resuspended in 100 μL FACS Buffer and analyzed by flow cytometry (BD LSR Fortessa or FACSCanto 11) for cell event collection. Data analysis were performed via FloJo v10.

T2 sequence (Q07011 24-255, change not shown): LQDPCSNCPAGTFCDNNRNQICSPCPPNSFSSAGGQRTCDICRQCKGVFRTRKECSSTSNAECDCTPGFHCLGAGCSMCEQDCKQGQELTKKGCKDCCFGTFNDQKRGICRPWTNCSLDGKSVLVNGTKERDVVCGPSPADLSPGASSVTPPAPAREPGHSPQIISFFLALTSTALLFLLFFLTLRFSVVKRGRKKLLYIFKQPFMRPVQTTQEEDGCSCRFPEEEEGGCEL

B1: TRIDENT-3 (other)
chain 1: DIQMTQSPSTLSASVGDRVTITCRASQSVGYMHWYQQKPGKAPKLLIYDTSKLASGVPSRFSGSGSGTEFTLTISSLQPDDFATYYCFQGSGYPFTFGGGTKLEIKGGGSGGGGEVKLDETGGGLVQPGRPMKLSCVASGFTFSDYWMNWVRQSPEKGLEWVAQIRNKPYNYETYYSDSVKGRFTISRDDSKSSVYLQMNNLRVEDMGIYYCTGSYYGMDYWGQGTSVTVSSASTKGEVAACEKEVAALEKEVAALEKEVAALEKGGGDKTHTCPPCPAPEAAGGPSVFLFPPKPKDTLMISRTPEVTCVVVDVSHEDPEVKFNWYVDGVEVHNAKTKPREEQYNSTYRVVSVLTVLHQDWLNGKEYKCKVSNKALPAPIEKTISKAKGQPREPQVYTLPPSREEMTKNQVSLWCLVKGFYPSDIAVEWESNGQPENNYKTTPPVLDSDGSFFLYSKLTVDKSRWQQGNVFSCSVMHEALHNHYTQKSLSLSPGK
chain 2: DVVMTQTPFSLPVSLGDQASISCRSSQSLVHSNGNTYLRWYLQKPGQSPKVLIYKVSNRFSGVPDRFSGSGSGTDFTLKISRVEAEDLGVYFCSQSTHVPWTFGGGTKLEIKGGGSGGGGQVTLRESGPALVKPTQTLTLTCTFSGFSLSTSGMSVGWIRQPPGKALEWLADIWWDDKKDYNPSLKSRLTISKDTSKNQVVLKVTNMDPADTATYYCARSMITNWYFDVWGAGTTVTVSSASTKGKVAACKEKVAALKEKVAALKEKVAALKE
heavy: QVQLVQSGAEVKKPGASVKVSCKASGYTFTSFWMHWVRQAPGQGLEWMGRIDPNRGGTEYNEKAKSRVTMTADKSTSTAYMELSSLRSEDTAVYYCAGGNPYYPMDYWGQGTTVTVSSASTKGPSVFPLAPSSKSTSGGTAALGCLVKDYFPEPVTVSWNSGALTSGVHTFPAVLQSSGLYSLSSVVTVPSSSLGTQTYICNVNHKPSNTKVDKRVEPKSCDKTHTCPPCPAPEAAGGPSVFLFPPKPKDTLMISRTPEVTCVVVDVSHEDPEVKFNWYVDGVEVHNAKTKPREEQYNSTYRVVSVLTVLHQDWLNGKEYKCKVSNKALPAPIEKTISKAKGQPREPQVYTLPPSREEMTKNQVSLSCAVKGFYPSDIAVEWESNGQPENNYKTTPPVLDSDGSFFLVSKLTVDKSRWQQGNVFSCSVMHEALHNRYTQKSLSLSPGK
light: DIQMTQSPSSLSASVGDRVTITCRASQGISNYLAWFQQKPGKAPKSLIYRANRLQSGVPSRFSGSGSGTDFTLTISSLQPEDVATYYCLQYDDFPWTFGQGTKLEIKRTVAAPSVFIFPPSDEQLKSGTASVVCLLNNFYPREAKVQWKVDNALQSGNSQESVTEQDSKDSTYSLSSTLTLSKADYEKHKVYACEVTHQGLSSPVTKSFNRGEC
On to B1, for which the “EC50 (read off the curve)” value is roughly 0.04 µg/mL in assay [1] and roughly 0.08 µg/mL in assay [2].

B2: hCD137 MAB-3 (1B.3) (antibody, V domains shown)
VH: QVQLVQSGAEVKKPGASVKVSCKASGYTFTSYWINWVKQAPGQGLEWIGNIYPSDSYTNYNQKFKDKATITADKSTSTAYMELSSLRSEDTAVYYCTRDYGSAYSMSTWGQGTTVTVSS
VL: DIQMTQSPSSLSASVGDRVTITCRPSQDISNYLNWYQQKPDKTVKLLIYYTSRLRSGVPSRFSGSGSGTDFTFTISSLQPEDIATYFCQQGDTLPYTFGQGTKLEIK
In the case of B2, the concentration giving a half-maximal response (EC50 (read off the curve)) in assay [3] was roughly 0.007 µg/mL.
